Reference: US20260022155A1

Target: HVEM expressed on cell lines (KTPloCD86A2 HVEM; K562CD19/HVEM) (UniProt Q92956)
Test: cell-based or functional assay
Conditions: scale: times higher than CD19-28z electroporated T cells

UniProt Q92956, sequence (Q92956 39-283 limits assumed): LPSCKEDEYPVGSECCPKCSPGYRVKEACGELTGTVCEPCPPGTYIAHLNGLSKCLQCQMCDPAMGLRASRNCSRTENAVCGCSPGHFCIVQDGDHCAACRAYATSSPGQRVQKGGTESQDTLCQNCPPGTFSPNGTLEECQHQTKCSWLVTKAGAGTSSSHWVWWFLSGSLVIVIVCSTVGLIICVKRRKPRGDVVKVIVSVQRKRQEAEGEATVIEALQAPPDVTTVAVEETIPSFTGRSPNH

## BTLA-CD28 CCR (receptor)
  IL-2 production (ELISA) of T cells co-electroporated with CD19z and BTLA-CD28 CCR: 4
